What follows are sequences tested on Escherichia coli TOP10 (assay: shrunken log2 fold change of peptide-encoding DNA abundance (4.5 h post-induction vs induction); higher = less antimicrobial activity (less host growth inhibition)). Conditions: time post-induction: 4.5 h; library: site-saturation at positions 5, 18, 19, 20.
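Further: peptides expressed intracellularly from a pBAD plasmid library in pooled LB shake-flask culture, induced with 0.3% L-arabinose, DNA abundance read by NGS, three biological replicates, DESeq2 with apeglm shrinkage.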

Row | Sequence | shrunken log2 fold change
1 | RRIRERPPRLPRPRPRPHDNPRP | -0.227
2 | RRIRERPPRLPRPRPRPHDSPRP | -0.00973
3 | RRIRERPPRLPRPRPRPHELPRP | -0.0556
4 | RRIRERPPRLPRPRPRPHFCPRP | -0.117
5 | RRIRERPPRLPRPRPRPHFFPRP | -0.154
6 | RRIRERPPRLPRPRPRPHGLPRP | -0.161
7 | RRIRERPPRLPRPRPRPHGPPRP | 0.139
8 | RRIRERPPRLPRPRPRPHIRPRP | -0.126
9 | RRIRERPPRLPRPRPRPHKEPRP | -0.189
10 | RRIRERPPRLPRPRPRPHKIPRP | -0.13
11 | RRIRERPPRLPRPRPRPHKNPRP | -0.206
12 | RRIRERPPRLPRPRPRPHKWPRP | -0.0895
13 | RRIRERPPRLPRPRPRPHNCPRP | -0.417
14 | RRIRERPPRLPRPRPRPHNDPRP | -0.335
15 | RRIRERPPRLPRPRPRPHNHPRP | -0.734
16 | RRIRERPPRLPRPRPRPHNTPRP | -0.731
17 | RRIRERPPRLPRPRPRPHQNPRP | 0.0506
18 | RRIRERPPRLPRPRPRPHRSPRP | -0.103
19 | RRIRERPPRLPRPRPRPHSHPRP | -0.269
20 | RRIRERPPRLPRPRPRPHSVPRP | -0.00145
21 | RRIRERPPRLPRPRPRPHTFPRP | -0.14
22 | RRIRERPPRLPRPRPRPHTQPRP | -0.362

Row | Sequence | shrunken log2 fold change
23 | RRIRERPPRLPRPRPRPHTSPRP | -0.122
24 | RRIRERPPRLPRPRPRPHWLPRP | -0.128
25 | RRIRERPPRLPRPRPRPHYEPRP | -0.231
26 | RRIRERPPRLPRPRPRPHYSPRP | -0.16
27 | RRIRERPPRLPRPRPRPIAEPRP | 0.255
28 | RRIRERPPRLPRPRPRPIARPRP | -0.0237
29 | RRIRERPPRLPRPRPRPICIPRP | -0.0731
30 | RRIRERPPRLPRPRPRPICWPRP | 0.0372
31 | RRIRERPPRLPRPRPRPIEAPRP | -0.0164
32 | RRIRERPPRLPRPRPRPIFVPRP | -0.295
33 | RRIRERPPRLPRPRPRPIIHPRP | -0.413
34 | RRIRERPPRLPRPRPRPIILPRP | -0.136
35 | RRIRERPPRLPRPRPRPIITPRP | -0.867
36 | RRIRERPPRLPRPRPRPILFPRP | -0.57
37 | RRIRERPPRLPRPRPRPILPPRP | -0.182
38 | RRIRERPPRLPRPRPRPIMYPRP | -1.08
39 | RRIRERPPRLPRPRPRPINKPRP | -0.506
40 | RRIRERPPRLPRPRPRPIPKPRP | 0.65
41 | RRIRERPPRLPRPRPRPIPSPRP | -0.109
42 | RRIRERPPRLPRPRPRPIQNPRP | 0.0753
43 | RRIRERPPRLPRPRPRPIQRPRP | 0.146
44 | RRIRERPPRLPRPRPRPIQTPRP | 0.0703

Row | Sequence | shrunken log2 fold change
45 | RRIRERPPRLPRPRPRPISGPRP | -0.564
46 | RRIRERPPRLPRPRPRPISHPRP | -0.678
47 | RRIRERPPRLPRPRPRPISMPRP | 2.71
48 | RRIRERPPRLPRPRPRPISPPRP | -0.356
49 | RRIRERPPRLPRPRPRPISWPRP | -0.246
50 | RRIRERPPRLPRPRPRPITPPRP | -0.628
51 | RRIRERPPRLPRPRPRPITQPRP | 0.0291
52 | RRIRERPPRLPRPRPRPITSPRP | 0.0102
53 | RRIRERPPRLPRPRPRPIYCPRP | -0.143
54 | RRIRERPPRLPRPRPRPKAQPRP | 0.221
55 | RRIRERPPRLPRPRPRPKATPRP | 0.205
56 | RRIRERPPRLPRPRPRPKDQPRP | 0.188
57 | RRIRERPPRLPRPRPRPKGGPRP | -0.0194
58 | RRIRERPPRLPRPRPRPKHTPRP | -0.127
59 | RRIRERPPRLPRPRPRPKIKPRP | -0.6
60 | RRIRERPPRLPRPRPRPKKMPRP | -0.478
61 | RRIRERPPRLPRPRPRPKKWPRP | 2.71
62 | RRIRERPPRLPRPRPRPKMFPRP | -0.000277
63 | RRIRERPPRLPRPRPRPKMKPRP | -0.226
64 | RRIRERPPRLPRPRPRPKPPPRP | 0.242
65 | RRIRERPPRLPRPRPRPKPWPRP | 0.287
66 | RRIRERPPRLPRPRPRPKPYPRP | 0.082

Row | Sequence | shrunken log2 fold change
67 | RRIRERPPRLPRPRPRPKTQPRP | -0.102
68 | RRIRERPPRLPRPRPRPKTRPRP | -0.0349
69 | RRIRERPPRLPRPRPRPKWQPRP | -0.0355
70 | RRIRERPPRLPRPRPRPLASPRP | 0.16
71 | RRIRERPPRLPRPRPRPLCLPRP | -0.679
72 | RRIRERPPRLPRPRPRPLDHPRP | -0.155
73 | RRIRERPPRLPRPRPRPLDSPRP | -0.344
74 | RRIRERPPRLPRPRPRPLENPRP | 0.0225
75 | RRIRERPPRLPRPRPRPLEQPRP | -0.0811
76 | RRIRERPPRLPRPRPRPLFFPRP | -0.225
77 | RRIRERPPRLPRPRPRPLHDPRP | 0.0501
78 | RRIRERPPRLPRPRPRPLIDPRP | -0.352
79 | RRIRERPPRLPRPRPRPLKCPRP | -0.11
80 | RRIRERPPRLPRPRPRPLKQPRP | -0.121
81 | RRIRERPPRLPRPRPRPLLTPRP | -0.116
82 | RRIRERPPRLPRPRPRPLMAPRP | -0.169
83 | RRIRERPPRLPRPRPRPLNRPRP | 0.0599
84 | RRIRERPPRLPRPRPRPLPVPRP | -0.0551
85 | RRIRERPPRLPRPRPRPLQKPRP | -0.113
86 | RRIRERPPRLPRPRPRPLQQPRP | 0.0643
87 | RRIRERPPRLPRPRPRPLVSPRP | -0.055
88 | RRIRERPPRLPRPRPRPLVVPRP | 0.0509

Row | Sequence | shrunken log2 fold change
89 | RRIRERPPRLPRPRPRPLWDPRP | 0.108
90 | RRIRERPPRLPRPRPRPLWGPRP | 0.0859
91 | RRIRERPPRLPRPRPRPLWNPRP | -0.298
92 | RRIRERPPRLPRPRPRPLYDPRP | -1.62
93 | RRIRERPPRLPRPRPRPLYFPRP | -0.764
94 | RRIRERPPRLPRPRPRPMAMPRP | 0.0346
95 | RRIRERPPRLPRPRPRPMCFPRP | -0.176
96 | RRIRERPPRLPRPRPRPMDCPRP | -0.149
97 | RRIRERPPRLPRPRPRPMDIPRP | -0.235
98 | RRIRERPPRLPRPRPRPMDLPRP | -0.199
99 | RRIRERPPRLPRPRPRPMDRPRP | 0.0196
100 | RRIRERPPRLPRPRPRPMEPPRP | 0.0704
101 | RRIRERPPRLPRPRPRPMFFPRP | -0.0867
102 | RRIRERPPRLPRPRPRPMFGPRP | 0.0215
103 | RRIRERPPRLPRPRPRPMFLPRP | -0.206
104 | RRIRERPPRLPRPRPRPMFRPRP | -0.737
105 | RRIRERPPRLPRPRPRPMGMPRP | -0.00992
106 | RRIRERPPRLPRPRPRPMGSPRP | 0.00489
107 | RRIRERPPRLPRPRPRPMGWPRP | -0.218
108 | RRIRERPPRLPRPRPRPMHAPRP | 0.262
109 | RRIRERPPRLPRPRPRPMHCPRP | -0.0195

From the supplement of paper PMC9112550, “Optimization of the antimicrobial peptide Bac7 by deep mutational scanning” (BMC Biology, 2022)
